{"source": "paper PMC3775802", "key": {"[1]": {"biological_target": "T1, human alpha-thrombin (THR) (Homo sapiens) (UniProt P00734+P00734)", "assay": "competition (SPRi, free thrombin quantification)", "conditions": "5' amino modifier C6 as ordered; 20 mM Tris-HCl pH 7.4, 1 mM MgCl2, 120 mM NaCl, 10 mM KCl; thrombin co-injected with 500 nM cytochrome c; binding temperature not stated"}, "[2]": {"biological_target": "T1, human alpha-thrombin (THR) (Homo sapiens)", "assay": "back-scattering interferometry", "conditions": "5' amino modifier C6 as ordered; 20 mM Tris-HCl pH 7.4, 1 mM MgCl2, 120 mM NaCl, 10 mM KCl; thrombin co-injected with 500 nM cytochrome c; binding temperature not stated; cited from earlier work"}}}
{"sequence": "TTTTTTTTTTAGTCCGTGGTAGGGGAGGTTGGGGTGACT [APT (anti-thrombin aptamer), solution competitor]", "values": [{"measurement": "Kd", "setting": "[1]", "value": 3.16, "unit": "nM"}, {"measurement": "Kd", "setting": "[2]", "value": 3.84, "unit": "nM"}]}
